According to paper PMC7415141, “Identification and characterization of cytosolic malate dehydrogenase from the liver fluke Fasciola gigantica” (Scientific Reports, 2020):

Assays:
[1] = target: cytosolic malate dehydrogenase from Fasciola gigantica (Fasciola gigantica); test: SEC; gel filtration on Superdex 200 (AKTA FPLC), buffer B (50 mM phosphate pH 7.6, 150 mM NaCl, 10% glycerol), room temperature, 0.3 mL/min; column calibrated with mass standards; single peak at about 15.3 mL, ~72 kDa against ~36 kDa for the monomer
purified protein [2] = substrate: O=C(O)C[C@H](O)C(=O)O; test: purified protein; type: biochemical, Fasciola gigantica; conditions: co-substrate NAD+ (0.5 mM), 50 mM glycine buffer, pH 9.6, 25 °C, 50 nM enzyme
purified protein [3] = substrate: NC(=O)c1ccc[n+]([C@@H]2O[C@H](COP(=O)(O)OP(=O)(O)OC[C@H]3O[C@@H](n4cnc5c(N)ncnc54)[C@H](O)[C@@H]3O)[C@@H](O)[C@H]2O)c1; test: purified protein; type: biochemical, Fasciola gigantica; conditions: co-substrate malate (assay text: 3 mM, misprinted as MDH), 50 mM glycine buffer, pH 9.6, 25 °C, 50 nM enzyme, varied: cofactor
purified protein [4] = substrate: O=C(O)CC(=O)C(=O)O; test: purified protein; type: biochemical, Fasciola gigantica; conditions: co-substrate NADH (0.21 mM), 50 mM Tris-Cl, pH 8.0, 25 °C, 50 nM enzyme
purified protein [5] = substrate: NC(=O)C1=CN([C@@H]2O[C@H](COP(=O)(O)OP(=O)(O)OC[C@H]3O[C@@H](n4cnc5c(N)ncnc54)[C@H](O)[C@@H]3O)[C@@H](O)[C@H]2O)C=CC1; test: purified protein; type: biochemical, Fasciola gigantica; conditions: co-substrate oxaloacetate (0.2 mM), 50 mM Tris-Cl, pH 8.0, 25 °C, 50 nM enzyme, varied: cofactor

| stoichiometry N [1] | Molecule | Km (purified protein [2]) [µM] | Vmax (purified protein [2]) [µmol/min] | Km (purified protein [3]) [µM] | Vmax (purified protein [3]) [µmol/min] | Km (purified protein [4]) [µM] | Vmax (purified protein [4]) [µmol/min] | Km (purified protein [5]) [µM] | Vmax (purified protein [5]) [µmol/min] |
| --- | --- | --- | --- | --- | --- | --- | --- | --- | --- |
| 2 | cytosolic malate dehydrogenase from Fasciola gigantica (enzyme) |  |  |  |  |  |  |  |  |
|  | FgMDH (cytosolic malate dehydrogenase of Fasciola gigantica) (Fasciola gigantica) (protein, ~36 kDa, dimer ~72 kDa) MAPVKVLITGAAGQIGYNLAGMVARGDMLGPNQELILHLFDITPMLNSLHGLQMELDDCAFPLVREVVITDKAEVAFDDIDIALMVGAMPRKEGMERKDLLQANANIFKEQGKVLNEKAKKTVKVIVVGNPANTNALIMMKNAPSIPKENFSAMTRLDHNRATAQIAKRLKIPCTAVKNCVIWGNHSATQFPDVSHAVASIGGKDVKVWDAIKDEEWLKNEFVTTVQKRGAAVIAARKLSSAMSAAKAVVDHIHDWWYGTKPGEWVSMSVWSDGSYGAPVDVFFSFPVEIKDKKWTIVKDLSMDDWGKSMFKTTAEELSEEKVAALGK | 447 ± 47 | 5.45 | 309 ± 15 | 18.7 | 276 ± 92 | 4.1 | 141 ± 54 | 3.42 |
